Experiments:
[1] = system: Schaffer collateral (SC) synapses in mouse hippocampus; experiment: fEPSP field recordings at Schaffer collateral synapses in hippocampal slices; format: cell-based
Description: We assessed the effect of sAPPα on the synaptic properties of Schaffer collateral (SC) synapses in mouse hippocampus. […] As change in probability of neurotransmitter release inversely correlates with a change in short-term facilitation, we applied a burst of 5 stimuli at 3 different frequencies (20, 50, and 100 Hz) to induce short-term facilitation at the SC. […] Preincubation with the GABABR antagonist CGP54626 (CGP, 10 μM) for 20 min before the incubation with sAPPα blocked its effects on the peak amplitude of the fESPS and the input/output slopes (FIG. 10f-g). Accordingly, CGP occluded sAPPα-induced augmentation of short-term facilitation at 20, 50, and 100 Hz burst frequencies (FIG. 10h-j).
On the day of recording the brain of a 2-month-old Balb/c male mouse was quickly removed and 400 μm-thick horizontal slices were prepared in an ice-cold oxygenated buffer containing (in mM): sucrose, 182; KCl, 2.5; MgSO4, 2; NaH2PO4, 1.25; NaHCO3, 25; CaCl2), 0.8; MgCl2, 5; glucose, 25; ascorbate, 1; HEPES, 20. The slicing procedure was performed using a Leica VT1200 vibrating microtome. Slices were then transferred to a submerged recovery chamber at room temperature containing oxygenated (95% 02 and 5% C02) storage artificial cerebrospinal fluid (ACSF) for 30 min before the incubations (see below). The storage ACSF contained, in mM: NaCl, 100; KCl, 2.5; MgSO4, 2; NaH2PO4, 1.25; NaHCO3, 25; CaCl2), 1.2; MgCl2, 3; glucose, 20; ascorbate, 1; sodium pyruvate,3 and HEPES, 20. The slices were incubated in the incubation chambers perfused with oxygenated storage ACSF containing the experimental agents for 90 min before performing field recordings: In the incubation chamber, control slices were perfused with normal storage ACSF while sAPPα slices were perfused with storage ACSF containing 1 μM sAPPα. CGP slices were perfused with storage ACSF containing 10 μM CGP54626 (Tocris). CGP+sAPPα slices were preincubated in the chamber perfused with ACSF+CGP before being transferred into the chamber perfused with storage ACSF implemented with 10 μM CGP54626+1 μM sAPPα. All recordings were performed at 32-33° C. in a recording chamber perfused with ACSF (4 ml/min) on the stage of an Olympus BX51WI microscope equipped with IR optics and oblique illumination. Recording ACSF contains, in mM: NaCl, 129; KCl, 2.5; CaCl2), 1.2; MgCl2, 1.2; NaHCO3, 25; NaH2PO4, 1.25; glucose, 15. Stimulation of the Schaffer-collateral was delivered through a glass suction electrode (10-20 μm tip) filled with ACSF. fEPSPs were recorded using a glass pipette containing ACSF (1-2 MΩ) from proximal synapses in the CA1 stratum radiatum. Field recording experiments were analyzed using Clampfit.

[2] = system: cultured hippocampal neurons; experiment: FM1-43 dye labeling of presynaptic vesicle recycling; format: cell-based, mouse
Description: We assessed the effect of sAPPα on synaptic vesicle recycling (ref6) using the activity-dependent dye FM1-43. We measured density (D) and intensity (ΔF) of FM1-43 uptake in presynaptic vesicles turned over by stimulation of 30 action potentials (APs) at a rate of 1 Hz in cultured hippocampal neurons.
The experiments were performed in mature (15-28 days in vitro) cultures. Hippocampal neurons were imaged using a FV1000 spectral Olympus confocal microscope using a 60×1.2 NA water immersion objective. The experiments were conducted at room temperature in extracellular Tyrode solution containing (in mM): NaCl, 145; KCl, 3; glucose, 15; HEPES, 10; MgCl2, 1.2; CaCl2), 1.2; pH adjusted to 7.4 with NaOH. For FM-based imaging and analysis, activity-dependent FM1-43 (10 μM) styryl dye was used to estimate basal synaptic vesicle recycling using previously described protocol48. Briefly, action potentials were elicited by passing 50 mA constant current for 1 ms through two platinum wires, separated by ˜7 mm and close to the surface of the coverslip. The extracellular medium contained non-selective blocker of glutamate receptors (0.5 mM kynurenic acid) to block recurrent neuronal activity. 30 stimuli at 1 Hz were applied during FM1-43 loading, while 800 stimuli at 2 Hz during unloading. The fluorescence of individual synapses was determined from the difference between images obtained after staining and after destining (ΔF). Detection of signals was done using custom-written scripts in MATLAB (Mathworks) as described before48.

B1: sAPPα: soluble amyloid precursor protein α ectodomain; mouse APP695 18-612aa, Fc tag cleaved (protein)
chain: LEVPTDGNAGLLAEPQIAMFCGKLNMHMNVQNGKWESDPSGTKTCIGTKEGILQYCQEVYPELQITNVVEANQPVTIQNWCKRGRKQCKTHTHIVIPYRCLVGEFVSDALLVPDKCKFLHQERMDVCETHLHWHTVAKETCSEKSTNLHDYGMLLPCGIDKFRGVEFVCCPLAEESDSVDSADAEEDDSDVWWGGADTDYADGGEDKVVEVAEEEEVADVEEEEADDDEDVEDGDEVEEEAEEPYEEATERTTSTATTTTTTTESVEEVVRVPTTAASTPDAVDKYLETPGDENEHAHFQKAKERLEAKHRERMSQVMREWEEAERQAKNLPKADKKAVIQHFQEKVESLEQEAANERQQLVETHMARVEAMLNDRRRLALENYITALQAVPPRPHHVFNMLKKYVRAEQKDRQHTLKHFEHVRMVDPKKAAQIRSQVMTHLRVIYERMNQSLSLLYNVPAVAEEIQDEVDELLQKEQNYSDDVLANMISEPRISYGNDALMPSLTETKTTVELLPVNGEFSLDDLQPWHPFGVDSVPANTENEVEPVDARPAADRGLTTRPGSGLTNIKTEEISEVKMDAEFGHDSGFEVRHQK
- effect on fEPSP amplitude ([1]; 1 μM sAPPα incubation, 0.1 Hz stimulation): reducing fEPSP amplitude
- decrease in the slope of the input/output curve ([1]; 1 μM sAPPα incubation, 0.1 Hz stimulation, 30-150 μA): 23%
- short-term facilitation versus control slices ([1]; burst of 5 stimuli at 20, 50 and 100 Hz, 1 μM sAPPα): significantly higher
- reduction of total presynaptic strength (S=ΔF×D) ([2]; 1 μM, 15 min after addition, 30 APs at 1 Hz): 57%
- effect on presynaptic vesicle recycling (in words) ([2]; FM1-43, sAPPαΔExD at 1 μM): dose dependent manner

— US10829528B2, “Therapeutic agents for neurological and psychiatric disorders” (VIB VZW, priority 2016, dated 2020)
